This is an account of results in patent US20230080534A1 (SHANGHAI BIOTROY BIOTECHNIQUE, published 2023).

Assay [1] addresses T1, human SEMG2 full-length protein (human, UniProt Q02383 24-582, limits assumed).
T1 construct: also called SEMG2 protein; semenogelin 2
T1 sequence: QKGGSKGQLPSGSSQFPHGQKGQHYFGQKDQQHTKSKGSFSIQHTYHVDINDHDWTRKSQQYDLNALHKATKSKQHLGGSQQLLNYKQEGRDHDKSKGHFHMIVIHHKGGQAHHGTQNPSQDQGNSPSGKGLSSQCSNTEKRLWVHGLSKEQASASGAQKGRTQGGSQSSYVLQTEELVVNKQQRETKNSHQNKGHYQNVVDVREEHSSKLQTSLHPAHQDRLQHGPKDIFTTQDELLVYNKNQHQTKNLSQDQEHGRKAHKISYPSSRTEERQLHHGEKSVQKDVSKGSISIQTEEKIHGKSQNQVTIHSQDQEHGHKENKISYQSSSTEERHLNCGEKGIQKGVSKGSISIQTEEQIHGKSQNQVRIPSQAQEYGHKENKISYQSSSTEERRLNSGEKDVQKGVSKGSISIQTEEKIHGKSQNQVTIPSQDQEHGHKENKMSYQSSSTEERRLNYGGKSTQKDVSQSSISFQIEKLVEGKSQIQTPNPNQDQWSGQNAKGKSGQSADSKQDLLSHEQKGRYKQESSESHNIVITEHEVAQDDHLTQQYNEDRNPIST
Nature of the assay: biolayer interferometry (ForteBio Blitz or Gator). How it is done: The equilibrium dissociation constant (KD) of the antibody of the present invention binding to human SEMG2 was determined by biolayer interferometry (ForteBio Bltz or Gator instrument). […] 100 μl of SD buffer, antibody and SEMG2 were added to a 96-well black polystyrene half area microplate, respectively. Select the sensor location based on the sample location layout. KD values were analyzed using molecular interaction analysis software. In the experiments of the assays, the affinity constants of murine monoclonal antibodies and human antibodies H88-67, H88-93 and H88-96 are shown in Table 8, and the affinity and dissociation curves of SEMG2 and corresponding proteins are shown in FIG. 25.
In general terms: BLI is a label-free optical method that tracks binding on a fibre tip over time.

The target in assay [2] is T1, human SEMG2 full-length protein. The experiment in a line: ELISA, immobilized antigen SEMG2 (1-582). The text has this:
(§1) To clearly distinguish the binding epitopes of blocking antibodies (i.e., antibodies that can inhibit the binding between SEMG2 and CD27) and non-blocking antibodies, a corresponding ELISA analysis method was established. […] Anti-mouse or anti-rabbit secondary antibodies were then used to detect the corresponding bound antibodies.
On the technique in general: An ELISA detects its analyte on a solid surface through an enzyme-linked reagent.

For assay [3], the target named is T2, AIEKLVEGKSQIQ (not fully specified).
T2 construct: member of the group m41; the text speaks of glycine substitution, the sheet prints alanine
T2 peptide: AIEKLVEGKSQIQ
The experiment in a line: ELISA, immobilized peptide AIEKLVEGKSQIQ
The text has this: (§2) FIG. 20 depicts the value detected by ELISA, i.e., OD₄₅₀ absorbance. […] This experiment is used to determine the precise amino acid epitopes that different monoclonal antibodies bind to, and the relative importance of each amino acid to the binding antibody.

For assay [4], the target named is T3, QAEKLVEGKSQIQ (not fully specified).
T3 construct: member of the group m41; the text speaks of glycine substitution, the sheet prints alanine
T3 peptide: QAEKLVEGKSQIQ
Nature of the assay: ELISA, immobilized peptide QAEKLVEGKSQIQ
From the text: as §2

Assay [5] concerns the target T4, QIAKLVEGKSQIQ (not fully specified).
T4 construct: member of the group m41; the text speaks of glycine substitution, the sheet prints alanine
T4 peptide: QIAKLVEGKSQIQ
The experiment in a line: ELISA, immobilized peptide QIAKLVEGKSQIQ

In assay [6] the target is T5, QIEALVEGKSQIQ (not fully specified).
T5 construct: member of the group m41; the text speaks of glycine substitution, the sheet prints alanine
T5 peptide: QIEALVEGKSQIQ
The experiment in a line: ELISA, immobilized peptide QIEALVEGKSQIQ
From the text: as §2

Assay [7] concerns the target T6, QIEKAVEGKSQIQ (not fully specified).
T6 construct: alanine at this position
T6 peptide: QIEKAVEGKSQIQ
Nature of the assay: ELISA, immobilized peptide QIEKAVEGKSQIQ
From the text: as §2

Assay [8] has as its target T7, QIEKLAEGKSQIQ (not fully specified).
T7 construct: member of the group m41; the text speaks of glycine substitution, the sheet prints alanine
T7 peptide: QIEKLAEGKSQIQ
The experiment in a line: ELISA, immobilized peptide QIEKLAEGKSQIQ
From the text: as §2

The target in assay [9] is T8, QIEKLVAGKSQIQ (not fully specified).
T8 construct: member of the group m41; the text speaks of glycine substitution, the sheet prints alanine
T8 peptide: QIEKLVAGKSQIQ
The experiment in a line: ELISA, immobilized peptide QIEKLVAGKSQIQ
From the text: as §2
To further precisely define the exact epitopes (specific to the level of single amino acid) to which blocking antibodies MM02, MM05, MM07, MM08, MM13, MM14 bind, corresponding ELISA analysis method was established. […] Anti-mouse or anti-rabbit secondary antibodies were then used to detect the corresponding bound antibodies.

The target in assay [10] is T9, QIEKLVEAKSQIQ
T9 construct: member of the group m41; position 504 is glycine in SEMG2 and the sheet prints alanine there
T9 peptide: QIEKLVEAKSQIQ
Nature of the assay: ELISA, immobilized peptide QIEKLVEAKSQIQ
From the text: as §2

In assay [11] the target is T10, QIEKLVEGASQIQ (not fully specified).
T10 construct: member of the group m41; the text speaks of glycine substitution, the sheet prints alanine
T10 peptide: QIEKLVEGASQIQ
The experiment in a line: ELISA, immobilized peptide QIEKLVEGASQIQ
From the text: as §2

Assay [12] deals with T11, QIEKLVEGKAQIQ (not fully specified).
T11 construct: alanine at this position
T11 peptide: QIEKLVEGKAQIQ
Nature of the assay: ELISA, immobilized peptide QIEKLVEGKAQIQ
From the text: as §2

The target in assay [13] is T12, QIEKLVEGKSAIQ (not fully specified).
T12 construct: alanine at this position
T12 peptide: QIEKLVEGKSAIQ
The experiment in a line: ELISA, immobilized peptide QIEKLVEGKSAIQ
From the text: as §2

Assay [14] addresses T13, QIEKLVEGKSQAQ (not fully specified).
T13 construct: member of the group m41; the text speaks of glycine substitution, the sheet prints alanine
T13 peptide: QIEKLVEGKSQAQ
Nature of the assay: ELISA, immobilized peptide QIEKLVEGKSQAQ
From the text: as §2

Assay [15] deals with T14, QIEKLVEGKSQIA (not fully specified).
T14 construct: alanine at this position
T14 peptide: QIEKLVEGKSQIA
The experiment in a line: ELISA, immobilized peptide QIEKLVEGKSQIA
From the text: as §2

Assay [16] addresses T15, SEMG2(497-509) polypeptide QIEKLVEGKSQIQ (human).
T15 peptide: QIEKLVEGKSQIQ
The experiment in a line: ELISA, immobilized peptide QIEKLVEGKSQIQ
From the text: as §2

Assay [17] addresses T16, SEMG2(354-403) fragment (human).
T16 peptide: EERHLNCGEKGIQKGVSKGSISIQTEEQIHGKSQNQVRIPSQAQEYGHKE
Nature of the assay: ELISA, immobilized antigen SEMG2 (354-403).
From the text: as §1

The target in assay [18] is T17, SEMG2(442-453) fragment (human).
T17 peptide: IHGKSQNQVTIP
Nature of the assay: ELISA, immobilized antigen SEMG2 (442-453).
From the text: as §1

For assay [19], the target named is T15, SEMG2(497-509) polypeptide QIEKLVEGKSQIQ
The experiment in a line: ELISA, immobilized antigen SEMG2 (497-509).
From the text: as §1

The target in assay [20] is T18, SEMG2(563-574) fragment (human).
T18 peptide: VAQDDHLTQQYN
Nature of the assay: ELISA, immobilized antigen SEMG2 (563-574).
From the text: as §1

Assay [21] concerns the target T1, human SEMG2 full-length protein. Nature of the assay: ELISA, plate coated with SEMG2 protein, anti-mouse secondary antibody; the EC50 table prints no unit, the axis is log (antibody concentration, nM).

No end group written: not given here.

B1: MM08 (antibody, IgG1, V domains shown)
VH: QVQLQQPGAELVRPGASVKLSCKSSDYTFTRYWMNWVKQRPGQGLEWIGMIDPSDSETHHNQMFKDKATLTVDKSSSTAYMQLSSLTSEDSAVYFCARYLGGKEGSFDYWGQGTTLTVSS
VL: DIVLTQSPSSLAVSAGERVTMSCKSSQSLFNSRTRKNYLAWYQQKPGQSPKLLLYWASTRESGVPDRFTGSGSGTDFTLTISSVKTEDLAVYYCKQSYELPWTFGGGTKLEMKR
A word on the Kd: it is the concentration at which binding is half-saturated. Read a low Kd as a tighter complex. Broadly, the EC50 is the concentration that produces a half-maximal response. A low value points to an effect from little substance. Consider B1, for which, in assay [1], the Kd turned out to be 2340 pM. The A450 absorbance in [2] was determined as 1.13; in [17], 0.012; in assay [18], 0.008; in [19], 1.14; in [20] it was 0.001. Further, the OD450 absorbance in assay [3] worked out at 0.942; in assay [4] it was 0.671; in [5], 0.544; in assay [6] it was 0.789; in assay [7], 0.213; in assay [8] it was 0.509. Also, the OD450 absorbance is 0.566 in assay [9]; 0.824 in assay [10]; 0.939 in assay [11]; 0.023 in assay [12]; 1.22 in assay [13]; 0.798 in assay [14]. In addition, the OD450 absorbance in assay [15] worked out at 1.19; in assay [16], 1.26. The binding result in [17], in [18] and in assay [20] was “no binding” each time. In addition, a half-maximal effect in assay [21] (EC50) was put at 418 pM.

B2: MM07 (antibody, V domains shown)
VH: QIQLVQSGPELKKPGETVRISCKASGYTLTTAGMQWVQKIPGKGLKWIGWINTHSGVAEFAEDFKGRFAFSLETSANTAYLQIRNLKNEDTATYFCARLGLLGYWGQGTTLTVSS
VL: DILLTQSPAILSVSPGERVSFSCRASQSIGTTIHWYQQRTNGSPRLLIKYASESISGIPSRFSGSGSGTDFTLSINSVESEDIADYYCQQSNSWPWTFGGGTKLEIKR
notes: The VH and VL begin with what look like leader peptides (MDWLW..., MVSSAQ...)
In assay [1], B2 yielded a Kd of 1820 pM. Moreover, the A450 absorbance stood at 1.14 in assay [2]; 0.001 in assay [17]; 0.011 in assay [18]; 1.14 in assay [19]; 0.012 in assay [20]. Further, the OD450 absorbance in assay [3] was 0.919; in assay [4] it was 0.833; in assay [5], 0.48; in [6] it was 0.822; in assay [7] it was 0.123; in assay [8] it was 0.814. In addition, the OD450 absorbance in assay [9] was determined as 0.899; in assay [10], 0.58; in assay [11] it was 0.79; in assay [12], 0.296; in [13] it was 1.16; in assay [14], 0.509. The OD450 absorbance was 1.26 in assay [15] and 1.19 in assay [16]. Also, the binding result in assay [17], in assay [18] and in assay [20] was “no binding” each time.

B3: MM13 (antibody, V domains shown)
VH: EVQLQQSGAELVRSGASVKLSCTASGFNIKDYYMHWMKQRPEQGLEWIGWIDPENGDNEYAPKFQGKATMTADTSSNTAYLQLSSLTSEDTAVYYCNVGGAHYWGQGTTLTVSS
VL: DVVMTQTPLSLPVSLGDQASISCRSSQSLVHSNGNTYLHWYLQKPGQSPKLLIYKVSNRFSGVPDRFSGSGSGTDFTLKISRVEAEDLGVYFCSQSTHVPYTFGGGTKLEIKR
In the case of B3, the Kd in [1] was 693 pM. The A450 absorbance in assay [2] amounted to 1.13; in [17], 0.001; in [18], 0.008; in [19], 1.14; in assay [20] it was 0.01. The OD450 absorbance in [3] stood at 0.48; in [4], 0.467; in assay [5] it was 0.67; in assay [6], 0.712; in assay [7], 0.049; in assay [8] it was 0.658. The OD450 absorbance in [9] stood at 0.738; in [10] it was 0.842; in [11] it was 0.818; in assay [12], 0.211; in assay [13], 1.19; in assay [14], 0.699. For the same molecule, the OD450 absorbance in assay [15] came out at 1.25; in assay [16], 1.23. Further, the binding result in [17], in assay [18] and in assay [20] was “no binding” each time. The molecule further showed an EC50 in [21] of 382 pM.
